The values that follow come from article PMC8298264, “Function of cofactor Akirin2 in the regulation of gene expression in model human neutrophil-like HL60 cells” (Bioscience Reports, 2021).

B1: sp¦O75746¦CMC1_HUMAN (protein, UniProt O75746 2-678, looked up)
Electrogenic …: AVKVQTTKRGDPHELRNIFLQYASTEVDGERYMTPEDFVQRYLGLYNDPNSNPKIVQLLAGVADQTKDGLISYQEFLAFESVLCAPDSMFIVAFQLFDKSGNGEVTFENVKEIFGQTIIHHHIPFNWDCEFIRLHFGHNRKKHLNYTEFTQFLQELQLEHARQAFALKDKSKSGMISGLDFSDIMVTIRSHMLTPFVEENLVSAAGGSISHQVSFSYFNAFNSLLNNMELVRKIYSTLAGTRKDVEVTKEEFAQSAIRYGQVTPLEIDILYQLADLYNASGRLTLADIERIAPLAEGALPYNLAELQRQQSPGLGRPIWLQIAESAYRFTLGSVAGAVGATAVYPIDLVKTRMQNQRGSGSVVGELMYKNSFDCFKKVLRYEGFFGLYRGLIPQLIGVAPEKAIKLTVNDFVRDKFTRRDGSVPLPAEVLAGGCAGGSQVIFTNPLEIVKIRLQVAGEITTGPRVSALNVLRDLGIFGLYKGAKACFLRDIPFSAIYFPVYAHCKLLLADENGHVGGLNLLAAGAMAGVPAASLVTPADVIKTRLQVAARAGQTTYSGVIDCFRKILREEGPSAFWKGTAARVFRSSPQFGVTLVTYELLQRWFYIDFGGLKPAGSEPTPKSRIADLPPANPDHIGGYRLATATFAGIENKFGLYLPKFKSPSVAVVQPKAAVAATQ
B2: sp¦P20340¦RAB6A_HUMAN (protein, UniProt P20340 2-208, looked up)
Ras-related protein Rab-6A: STGGDFGNPLRKFKLVFLGEQSVGKTSLITRFMYDSFDNTYQATIGIDFLSKTMYLEDRTVRLQLWDTAGQERFRSLIPSYIRDSTVAVVVYDITNVNSFQQTTKWIDDVRTERGSDVIIMLVGNKTDLADKRQVSIEEGERKAKELNVMFIETSAKAGYNVKQLFRRVAAALPGMESTQDRSREDMIDIKLEKPQEQPVSEGGCSC
B3: sp¦Q02218¦ODO1_HUMAN (protein, UniProt Q02218 41-1023, looked up)
2-oxoglutarate dehydrogenase …: SAPVAAEPFLSGTSSNYVEEMYCAWLENPKSVHKSWDIFFRNTNAGAPPGTAYQSPLPLSRGSLAAVAHAQSLVEAQPNVDKLVEDHLAVQSLIRAYQIRGHHVAQLDPLGILDADLDSSVPADIISSTDKLGFYGLDESDLDKVFHLPTTTFIGGQESALPLREIIRRLEMAYCQHIGVEFMFINDLEQCQWIRQKFETPGIMQFTNEEKRTLLARLVRSTRFEEFLQRKWSSEKRFGLEGCEVLIPALKTIIDKSSENGVDYVIMGMPHRGRLNVLANVIRKELEQIFCQFDSKLEAADEGSGDVKYHLGMYHRRINRVTDRNITLSLVANPSHLEAADPVVMGKTKAEQFYCGDTEGKKVMSILLHGDAAFAGQGIVYETFHLSDLPSYTTHGTVHVVVNNQIGFTTDPRMARSSPYPTDVARVVNAPIFHVNSDDPEAVMYVCKVAAEWRSTFHKDVVVDLVCYRRNGHNEMDEPMFTQPLMYKQIRKQKPVLQKYAELLVSQGVVNQPEYEEEISKYDKICEEAFARSKDEKILHIKHWLDSPWPGFFTLDGQPRSMSCPSTGLTEDILTHIGNVASSVPVENFTIHGGLSRILKTRGEMVKNRTVDWALAEYMAFGSLLKEGIHIRLSGQDVERGTFSHRHHVLHDQNVDKRTCIPMNHLWPNQAPYTVCNSSLSEYGVLGFELGFAMASPNALVLWEAQFGDFHNTAQCIIDQFICPGQAKWVRQNGIVLLLPHGMEGMGPEHSSARPERFLQMCNDDPDVLPDLKEANFDINQLYDCNWVVVNCSTPGNFFHVLRRQILLPFRKPLIIFTPKSLLRHPEARSSFDEMLPGTHFQRVIPEDGPAAQNPENVKRLLFCTGKVYYDLTRERKARDMVGQVAITRIEQLSPFPFDLLLKEVQKYPNAELAWCQEEHKNQGYYDYVKPRLRTTISRAKPVWYAGRDPAAAPATGNKKTHLTELQRLLDTAFDLDVFKNFS
B4: sp¦Q9Y276¦BCS1_HUMAN (protein, UniProt Q9Y276 2-419, looked up)
Mitochondrial chaperone BCS1: PLSDFILALKDNPYFGAGFGLVGVGTALALARKGVQLGLVAFRRHYMITLEVPARDRSYAWLLSWLTRHSTRTQHLSVETSYLQHESGRISTKFEFVPSPGNHFIWYRGKWIRVERSREMQMIDLQTGTPWESVTFTALGTDRKVFFNILEEARELALQQEEGKTVMYTAVGSEWRPFGYPRRRRPLNSVVLQQGLADRIVRDVQEFIDNPKWYTDRGIPYRRGYLLYGPPGCGKSSFITALAGELEHSICLLSLTDSSLSDDRLNHLLSVAPQQSLVLLEDVDAAFLSRDLAVENPVKYQGLGRLTFSGLLNALDGVASTEARIVFMTTNHVDRLDPALIRPGRVDLKEYVGYCSHWQLTQMFQRFYPGQAPSLAENFAEHVLRATNQISPAQVQGYFMLYKNDPVGAIHNAESLRR
B5: Alpha-2-macroglobulin (protein, UniProt P01023 24-1474, looked up)
Alpha-2-macroglobulin: SVSGKPQYMVLVPSLLHTETTEKGCVLLSYLNETVTVSASLESVRGNRSLFTDLEAENDVLHCVAFAVPKSSSNEEVMFLTVQVKGPTQEFKKRTTVMVKNEDSLVFVQTDKSIYKPGQTVKFRVVSMDENFHPLNELIPLVYIQDPKGNRIAQWQSFQLEGGLKQFSFPLSSEPFQGSYKVVVQKKSGGRTEHPFTVEEFVLPKFEVQVTVPKIITILEEEMNVSVCGLYTYGKPVPGHVTVSICRKYSDASDCHGEDSQAFCEKFSGQLNSHGCFYQQVKTKVFQLKRKEYEMKLHTEAQIQEEGTVVELTGRQSSEITRTITKLSFVKVDSHFRQGIPFFGQVRLVDGKGVPIPNKVIFIRGNEANYYSNATTDEHGLVQFSINTTNVMGTSLTVRVNYKDRSPCYGYQWVSEEHEEAHHTAYLVFSPSKSFVHLEPMSHELPCGHTQTVQAHYILNGGTLLGLKKLSFYYLIMAKGGIVRTGTHGLLVKQEDMKGHFSISIPVKSDIAPVARLLIYAVLPTGDVIGDSAKYDVENCLANKVDLSFSPSQSLPASHAHLRVTAAPQSVCALRAVDQSVLLMKPDAELSASSVYNLLPEKDLTGFPGPLNDQDNEDCINRHNVYINGITYTPVSSTNEKDMYSFLEDMGLKAFTNSKIRKPKMCPQLQQYEMHGPEGLRVGFYESDVMGRGHARLVHVEEPHTETVRKYFPETWIWDLVVVNSAGVAEVGVTVPDTITEWKAGAFCLSEDAGLGISSTASLRAFQPFFVELTMPYSVIRGEAFTLKATVLNYLPKCIRVSVQLEASPAFLAVPVEKEQAPHCICANGRQTVSWAVTPKSLGNVNFTVSAEALESQELCGTEVPSVPEHGRKDTVIKPLLVEPEGLEKETTFNSLLCPSGGEVSEELSLKLPPNVVEESARASVSVLGDILGSAMQNTQNLLQMPYGCGEQNMVLFAPNIYVLDYLNETQQLTPEIKSKAIGYLNTGYQRQLNYKHYDGSYSTFGERYGRNQGNTWLTAFVLKTFAQARAYIFIDEAHITQALIWLSQRQKDNGCFRSSGSLLNNAIKGGVEDEVTLSAYITIALLEIPLTVTHPVVRNALFCLESAWKTAQEGDHGSHVYTKALLAYAFALAGNQDKRKEVLKSLNEEAVKKDNSVHWERPQKPKAPVGHFYEPQAPSAEVEMTSYVLLAYLTAQPAPTSEDLTSATNIVKWITKQQNAQGGFSSTQDTVVALHALSKYGAATFTRTGKAAQVTIQSSGTFSSKFQVDNNNRLLLQQVSLPELPGEYSMKVTGEGCVYLQTSLKYNILPEKEEFPFALGVQTLPQTCDEPKAHTSFQISLSVSYTGSRSASNMAIVDVKMVSGFIPLKPTVKMLERSNHVSRTEVSSNHVLIYLDKVSNQTLSLFFTVLQDVPVRDLKPAIVKVYDYYETDEFAIAEYNAPCSKDLGNA
B6: sp¦Q9UHD1¦CHRD1_HUMAN (protein, UniProt Q9UHD1 2-332, looked up)
Cysteine and histidine-rich …: ALLCYNRGCGQRFDPETNSDDACTYHPGVPVFHDALKGWSCCKRRTTDFSDFLSIVGCTKGRHNSEKPPEPVKPEVKTTEKKELCELKPKFQEHIIQAPKPVEAIKRPSPDEPMTNLELKISASLKQALDKLKLSSGNEENKKEEDNDEIKIGTSCKNGGCSKTYQGLESLEEVCVYHSGVPIFHEGMKYWSCCRRKTSDFNTFLAQEGCTKGKHMWTKKDAGKKVVPCRHDWHQTGGEVTISVYAKNSLPELSRVEANSTLLNVHIVFEGEKEFDQNVKLWGVIDVKRSYVTMTATKIEITMRKAEPMQWASLELPAAKKQEKQKDATTD
B7: sp¦P52789¦HXK2_HUMAN (protein, UniProt P52789 1-917, looked up)
Hexokinase-2: MIASHLLAYFFTELNHDQVQKVDQYLYHMRLSDETLLEISKRFRKEMEKGLGATTHPTAAVKMLPTFVRSTPDGTEHGEFLALDLGGTNFRVLWVKVTDNGLQKVEMENQIYAIPEDIMRGSGTQLFDHIAECLANFMDKLQIKDKKLPLGFTFSFPCHQTKLDESFLVSWTKGFKSSGVEGRDVVALIRKAIQRRGDFDIDIVAVVNDTVGTMMTCGYDDHNCEIGLIVGTGSNACYMEEMRHIDMVEGDEGRMCINMEWGAFGDDGSLNDIRTEFDQEIDMGSLNPGKQLFEKMISGMYMGELVRLILVKMAKEELLFGGKLSPELLNTGRFETKDISDIEGEKDGIRKAREVLMRLGLDPTQEDCVATHRICQIVSTRSASLCAATLAAVLQRIKENKGEERLRSTIGVDGSVYKKHPHFAKRLHKTVRRLVPGCDVRFLRSEDGSGKGAAMVTAVAYRLADQHRARQKTLEHLQLSHDQLLEVKRRMKVEMERGLSKETHASAPVKMLPTYVCATPDGTEKGDFLALDLGGTNFRVLLVRVRNGKWGGVEMHNKIYAIPQEVMHGTGDELFDHIVQCIADFLEYMGMKGVSLPLGFTFSFPCQQNSLDESILLKWTKGFKASGCEGEDVVTLLKEAIHRREEFDLDVVAVVNDTVGTMMTCGFEDPHCEVGLIVGTGSNACYMEEMRNVELVEGEEGRMCVNMEWGAFGDNGCLDDFRTEFDVAVDELSLNPGKQRFEKMISGMYLGEIVRNILIDFTKRGLLFRGRISERLKTRGIFETKFLSQIESDCLALLQVRAILQHLGLESTCDDSIIVKEVCTVVARRAAQLCGAGMAAVVDRIRENRGLDALKVTVGVDGTLYKLHPHFAKVMHETVKDLAPKCDVSFLQSEDGSGKGAALITAVACRIREAGQR

The first test has as its system human HL60 cells. The test can be described thus: SWATH-MS proteomics, differential protein representation, akirin2 KO vs WT HL60 cells. The class given is cell-based. The following applies: KO vs WT HL60 cells; sheet "Under-represented in KO". Summed up:
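Differential representation compares akirin2 KO with WT HL60 across three biological replicates, 5 µg digest each, acquired by data-independent SWATH on a 120-min gradient. Library built from combined IDA runs searched with Paragon; proteins accepted at 1% FDR, with total-area-sum normalization.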
In the case of B1, the “Fold Change” value was 0.5201 and the “Log (Fold Change)” value is listed as -0.2839.

For the molecule B2, the “Fold Change” value turned out to be 0.5176 and the “Log (Fold Change)” value is on record as -0.286.

Regarding B3, the “Fold Change” value was 0.5221 and the “Log (Fold Change)” value is -0.2822.

Consider B4, for which the “Fold Change” value stood at 0.5207 and the “Log (Fold Change)” value was -0.2834.

Still in this test, the particulars now being: SWATH-MS, akirin2 KO vs WT HL60 cells; over-represented in KO.
As to B5, the “Fold Change” value was determined as 4.777 and the “Log (Fold Change)” value stood at 0.6792.

As to B6, the “Fold Change” value worked out at 1.486 and the “Log (Fold Change)” value is 0.1721.

Regarding B7, the “Fold Change” value is recorded as 1.502 and the “Log (Fold Change)” value was determined as 0.1767.
